# In article PMC9561264:
# “And” between values parts separate entries of the source, which are not always exact repeats. Equal values may be shown once.
# How the values were obtained:
# c-Myc;Max = c-Myc;Max (UniProt P01106); test: AFM (QD-Myc); details: 8-oxoguanine 8 bp upstream of E-box, ~50% of length; FP at 25°C with 5 nM labelled DNA; EMSA room temp 30 min, 15% native PAGE 0.5x TBE 4°C; interaction buffer 20 mM Tris-HCl pH 7.6, 200 mM NaCl (Fig. S12) …
# [1] = target: hOGG1 C28A;c-Myc;Max C28A (human;human?;human?) (UniProt O15527+P01106); test: AFM (QD-Myc); details: 8-oxoguanine 8 bp upstream of E-box, ~50% of length; FP at 25°C with 5 nM labelled DNA; EMSA room temp 30 min, 15% native PAGE 0.5x TBE 4°C; interaction buffer 20 mM Tris-HCl pH 7.6, 200 mM NaCl (Fig. S12) …
# Chain of hOGG1 C28A;c-Myc;Max C28A (human;human?;human?) (P01106 whole entry, looked up, chain 1 of 2): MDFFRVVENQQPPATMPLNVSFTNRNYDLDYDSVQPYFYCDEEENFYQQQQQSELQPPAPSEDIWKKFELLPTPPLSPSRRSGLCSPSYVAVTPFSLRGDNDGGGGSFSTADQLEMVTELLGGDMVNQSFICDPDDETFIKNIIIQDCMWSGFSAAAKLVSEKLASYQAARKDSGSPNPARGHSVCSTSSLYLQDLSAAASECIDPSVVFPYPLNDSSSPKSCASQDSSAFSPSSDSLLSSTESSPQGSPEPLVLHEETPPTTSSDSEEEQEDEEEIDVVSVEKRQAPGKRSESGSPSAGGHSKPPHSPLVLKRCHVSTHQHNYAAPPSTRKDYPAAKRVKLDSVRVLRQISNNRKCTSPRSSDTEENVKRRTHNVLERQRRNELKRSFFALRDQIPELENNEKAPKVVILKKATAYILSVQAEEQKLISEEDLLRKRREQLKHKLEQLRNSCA
# Chain of hOGG1 C28A;c-Myc;Max C28A (human;human?;human?) (O15527 whole entry, looked up, stated change not applied, chain 2 of 2): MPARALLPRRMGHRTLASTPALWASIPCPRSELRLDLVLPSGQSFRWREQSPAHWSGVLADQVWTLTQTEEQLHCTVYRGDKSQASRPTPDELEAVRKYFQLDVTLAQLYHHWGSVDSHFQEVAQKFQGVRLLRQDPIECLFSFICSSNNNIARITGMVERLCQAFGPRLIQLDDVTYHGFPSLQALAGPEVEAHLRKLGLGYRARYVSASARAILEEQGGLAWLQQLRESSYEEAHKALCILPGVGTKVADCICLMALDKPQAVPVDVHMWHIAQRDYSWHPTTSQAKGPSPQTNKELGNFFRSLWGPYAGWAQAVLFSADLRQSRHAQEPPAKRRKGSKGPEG
# [2] = target: hOGG1 K249Q;c-Myc;Max K249Q (human;human?;human?) (UniProt O15527+P01106); test: AFM (QD-Myc); details: 8-oxoguanine 8 bp upstream of E-box, ~50% of length; FP at 25°C with 5 nM labelled DNA; EMSA room temp 30 min, 15% native PAGE 0.5x TBE 4°C; interaction buffer 20 mM Tris-HCl pH 7.6, 200 mM NaCl (Fig. S12) …
# Chain of hOGG1 K249Q;c-Myc;Max K249Q (human;human?;human?) (P01106 whole entry, looked up, chain 1 of 2): as the sequence (P01106 whole entry, looked up, chain 1 of 2) above
# Chain of hOGG1 K249Q;c-Myc;Max K249Q (human;human?;human?) (O15527 whole entry, looked up, stated change not applied, chain 2 of 2): as the sequence (O15527 whole entry, looked up, stated change not applied, chain 2 of 2) above
# [3] = target: T1, hOGG1 wild type;c-Myc (human;human?) (UniProt O15527+P01106); test: AFM (QD-Myc); details: 8-oxoguanine 8 bp upstream of E-box, ~50% of length; FP at 25°C with 5 nM labelled DNA; EMSA room temp 30 min, 15% native PAGE 0.5x TBE 4°C; interaction buffer 20 mM Tris-HCl pH 7.6, 200 mM NaCl (Fig. S12) …
# T1 sequence (O15527 whole entry, chain 1 of 2): as the sequence (O15527 whole entry, looked up, stated change not applied, chain 2 of 2) above
# T1 sequence (P01106 16-454, chain 2 of 2): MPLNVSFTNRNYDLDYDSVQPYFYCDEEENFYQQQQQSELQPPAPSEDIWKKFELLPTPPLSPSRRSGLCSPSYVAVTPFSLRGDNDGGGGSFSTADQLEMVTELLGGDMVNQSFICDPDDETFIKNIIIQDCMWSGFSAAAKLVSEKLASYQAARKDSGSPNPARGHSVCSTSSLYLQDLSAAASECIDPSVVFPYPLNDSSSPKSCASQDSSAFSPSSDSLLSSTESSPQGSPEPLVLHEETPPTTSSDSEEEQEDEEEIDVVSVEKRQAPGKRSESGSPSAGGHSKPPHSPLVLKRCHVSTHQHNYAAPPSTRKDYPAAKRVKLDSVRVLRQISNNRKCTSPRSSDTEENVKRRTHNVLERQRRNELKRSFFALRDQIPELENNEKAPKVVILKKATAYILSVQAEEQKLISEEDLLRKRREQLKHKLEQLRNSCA
# [4] = target: T2, hOGG1 wild type;c-Myc;Max (human;human?;human?) (UniProt O15527+P01106); test: AFM (QD-Myc); details: FP at 25°C with 5 nM labelled DNA, EMSA room temp 30 min, 15% native PAGE 0.5x TBE 4°C, interaction buffer 20 mM Tris-HCl pH 7.6, 200 mM NaCl (Fig. S12) …
# T2 sequence (P01106 whole entry, looked up, chain 1 of 2): as the sequence (P01106 whole entry, looked up, chain 1 of 2) above
# T2 sequence (O15527 whole entry, looked up, chain 2 of 2): as the sequence (O15527 whole entry, looked up, stated change not applied, chain 2 of 2) above
# hOGG1 C28A C28A (human) = hOGG1 C28A C28A (human) (UniProt O15527); test: AFM; details: oxidising; specificity 779 ± 471; 8-oxoguanine at ~50% (49.8%) of length; FP at 25°C with 5 nM labelled DNA; EMSA room temp 30 min, 15% native PAGE 0.5x TBE 4°C; interaction buffer 20 mM Tris-HCl pH 7.6, 200 mM NaCl (Fig. S12); reduci
# Chain of hOGG1 C28A C28A (human) (O15527 whole entry C28A): as the sequence (O15527 whole entry, looked up, stated change not applied, chain 2 of 2) above, with C28A counted along it
# [5] = target: hOGG1 C28A;c-Myc C28A (human;human?) (UniProt O15527+P01106); test: AFM; details: 8-oxoguanine at ~50% (49.8%) of length; FP at 25°C with 5 nM labelled DNA; EMSA room temp 30 min, 15% native PAGE 0.5x TBE 4°C; interaction buffer 20 mM Tris-HCl pH 7.6, 200 mM NaCl (Fig. S12) …
# Chain of hOGG1 C28A;c-Myc C28A (human;human?) (O15527 whole entry C28A, chain 1 of 2): as the sequence (O15527 whole entry, looked up, stated change not applied, chain 2 of 2) above, with C28A counted along it
# Chain of hOGG1 C28A;c-Myc C28A (human;human?) (P01106 16-454, chain 2 of 2): as the sequence (P01106 16-454, chain 2 of 2) above
# [6] = target: hOGG1 K249Q K249Q (human) (UniProt O15527); test: AFM; details: 8-oxoguanine at ~50% (49.8%) of length, FP at 25°C with 5 nM labelled DNA, EMSA room temp 30 min, 15% native PAGE 0.5x TBE 4°C
# Chain of hOGG1 K249Q K249Q (human) (O15527 whole entry K249Q): as the sequence (O15527 whole entry, looked up, stated change not applied, chain 2 of 2) above, with K249Q counted along it
# [7] = target: hOGG1 K249Q;c-Myc K249Q (human;human?) (UniProt O15527+P01106); test: AFM; details: 8-oxoguanine at ~50% (49.8%) of length, FP at 25°C with 5 nM labelled DNA, EMSA room temp 30 min, 15% native PAGE 0.5x TBE 4°C
# Chain of hOGG1 K249Q;c-Myc K249Q (human;human?) (O15527 whole entry K249Q, chain 1 of 2): as the sequence (O15527 whole entry, looked up, stated change not applied, chain 2 of 2) above, with K249Q counted along it
# Chain of hOGG1 K249Q;c-Myc K249Q (human;human?) (P01106 16-454, chain 2 of 2): as the sequence (P01106 16-454, chain 2 of 2) above
# [8] = target: T1, hOGG1 wild type;c-Myc (human;human?); test: AFM; details: 30 nM Myc, 8-oxoguanine at ~50% (49.8%) of length, FP at 25°C with 5 nM labelled DNA, EMSA room temp 30 min, 15% native PAGE 0.5x TBE 4°C, interaction buffer 20 mM Tris-HCl pH 7.6, 200 mM NaCl (Fig. S12) …
# [9] = target: T2, hOGG1 wild type;c-Myc;Max (human;human?;human?); test: AFM; details: 8-oxoguanine at ~50% (49.8%) of length, FP at 25°C with 5 nM labelled DNA, EMSA room temp 30 min, 15% native PAGE 0.5x TBE 4°C
# Chain of c-Myc;Max (P01106 whole entry, looked up): as the sequence (P01106 whole entry, looked up, chain 1 of 2) above
substance,measurement,setting,value
oxoG-E-box AFM substrate,binding signal,c-Myc;Max,0.14 Myc/DNA and 0.12 Myc/DNA
same,binding signal,[1],0.16 Myc/DNA
same,binding signal,[2],0.29 Myc/DNA and 0.17 Myc/DNA
same,binding signal,[3],0.12 Myc/DNA and 0.08 Myc/DNA
same,binding signal,"[4]; 8-oxoguanine 8 bp upstream of E-box, ~50% of length",0.29 Myc/DNA and 0.17 Myc/DNA
oxoG 505 bp AFM substrate,binding signal (counts/DNA at oxoG),hOGG1 C28A C28A (human),0.14
same,binding signal (counts/DNA at oxoG),[5],0.14
same,binding signal (counts/DNA at oxoG),"[6]; oxidising, specificity 294 ± 139, interaction buffer 20 mM Tris-HCl pH 7.6, 200 mM NaCl (Fig. S12), reduci",0.09
same,binding signal (counts/DNA at oxoG),"[6]; reducing, specificity 468 ± 197, interaction buffer 20 mM Tris-HCl pH 7.6, 200 mM NaCl (Fig. S12) …",0.18
same,binding signal (counts/DNA at oxoG),"[7]; oxidising, specificity 438 ± 217, interaction buffer 20 mM Tris-HCl pH 7.6, 200 mM NaCl (Fig. S12), reduci",0.1
same,binding signal (counts/DNA at oxoG),"[7]; reducing, specificity 421 ± 153, interaction buffer 20 mM Tris-HCl pH 7.6, 200 mM NaCl (Fig. S12) …",0.15
same,binding signal (counts/DNA at oxoG),"[8]; oxidising, specificity 423 ± 155",0.17
same,binding signal (counts/DNA at oxoG),"[8]; reducing, specificity 517 ± 161",0.17
same,binding signal (counts/DNA at oxoG),"[9]; oxidising, specificity 421 ± 252, interaction buffer 20 mM Tris-HCl pH 7.6, 200 mM NaCl (Fig. S12), reduci",0.19
same,binding signal (counts/DNA at oxoG),"[9]; reducing, specificity 456 ± 289, interaction buffer 20 mM Tris-HCl pH 7.6, 200 mM NaCl (Fig. S12) …",0.12
same,binding signal,[4]; 8-oxoguanine at ~50% (49.8%) of length,0.15 Myc/DNA and 0.06 Myc/DNA
E-box AFM substrate,binding signal,[4],0.11 Myc/DNA
